From patent US20090093372A1

Target: human E-cadherin on human embryonic stem cells (hESCs; CyT203) (human) (UniProt P12830)
Assay: cell-based or functional assay

Sequence of UniProt P12830 (P12830 155-882 limits assumed): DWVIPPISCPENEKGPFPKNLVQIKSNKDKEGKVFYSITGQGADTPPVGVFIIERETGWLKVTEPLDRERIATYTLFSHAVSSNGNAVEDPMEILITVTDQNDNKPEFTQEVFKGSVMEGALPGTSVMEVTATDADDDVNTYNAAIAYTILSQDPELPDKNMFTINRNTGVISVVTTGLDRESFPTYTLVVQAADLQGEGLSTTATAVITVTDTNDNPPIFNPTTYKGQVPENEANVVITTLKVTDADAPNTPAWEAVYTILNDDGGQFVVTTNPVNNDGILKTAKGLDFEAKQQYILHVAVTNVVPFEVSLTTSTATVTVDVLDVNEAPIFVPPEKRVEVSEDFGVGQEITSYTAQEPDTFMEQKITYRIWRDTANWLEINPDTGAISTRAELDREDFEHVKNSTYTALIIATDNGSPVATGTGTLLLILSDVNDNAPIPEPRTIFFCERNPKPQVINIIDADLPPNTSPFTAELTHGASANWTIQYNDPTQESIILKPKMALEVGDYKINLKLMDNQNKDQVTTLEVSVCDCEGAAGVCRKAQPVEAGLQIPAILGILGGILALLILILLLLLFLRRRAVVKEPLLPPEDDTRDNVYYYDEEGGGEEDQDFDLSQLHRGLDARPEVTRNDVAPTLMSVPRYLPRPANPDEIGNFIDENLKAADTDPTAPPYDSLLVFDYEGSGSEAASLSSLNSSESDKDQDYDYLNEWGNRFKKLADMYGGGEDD

- percentage of CXCR4 positive cells (flow cytometry after 3 days of differentiation to definitive endoderm; antibody at 5 µg/mL on day 1): 93%
Substance: mouse anti-human E-cadherin antibody (Zymed Cat. No. 13-1700)
